{"source": "patent US10227653B2", "about": "“High MAST2-affinity polypeptides and uses thereof” (INSTITUT PASTEUR, priority 2011, dated 2019)", "key": {"[1]": {"biological_target": "T1, PDZ domain of the human MAST2 protein (MAST2-PDZ) (Homo sapiens, UniProt Q6P0Q8)", "T1 sequence (Q6P0Q8 1101-1193 limits assumed)": "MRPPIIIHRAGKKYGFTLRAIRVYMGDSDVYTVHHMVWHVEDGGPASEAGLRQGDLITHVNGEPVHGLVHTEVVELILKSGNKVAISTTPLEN", "assay": "Isothermal Titration Calorimetry (ITC) with MAST2-PDZ", "type": "binding", "settings": "298 K, 50 mM Tris-HCl, 150 mM NaCl, pH7.5, read-out: Kd (μM) (dissociation constant) MAST2-PDZ"}, "[2]": {"biological_target": "T2, PDZ domain of the human PTPN4 protein (PTPN4-PDZ) (Homo sapiens, UniProt P29074)", "T2 construct": "the PDZ domain of the human PTPN4 protein", "T2 sequence (P29074 517-589 limits assumed)": "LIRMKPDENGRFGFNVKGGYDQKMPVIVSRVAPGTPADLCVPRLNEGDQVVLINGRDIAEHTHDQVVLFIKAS", "assay": "ITC with PTPN4-PDZ", "type": "binding", "method": "The affinity of the polypeptides of the invention for the PDZ domain of the human PTPN4 protein is low, i.e., the constant of dissociation (KD) of the complex formed by the polypeptide of the invention with the PDZ domain of the human PTPN4 protein is high, in particular is more than 500 μM (for example as measured by ITC, in particular in the same conditions and with the same concentrations as for the MAST2-PDZ above).\nITC measurements were made using VP-ITC VP-ITC200 calorimeters (MicroCal). MAST2-PDZ was titrated at 298 K by injections of the polypeptides (25-45 consecutive aliquots of 5-7 μL at 6-min intervals). Raw data were normalized and corrected for heats of dilution of polypeptides. Equilibrium dissociation constants (KD) were determined performing nonlinear curve fitting of the corrected data to a model with one set of sites using the Origin7.0 software (OriginLab). All samples were prepared in a buffer containing 50 mM Tris-HCl, 150 mM NaCl, pH7.5. Data were recorded with MAST2-PDZ at an initial concentration of 30 μM and with peptide at initial concentrations ranging from 250 μM to 350 μM."}}, "data": [{"substance": "ATT13: polypeptide ending with the MAST-2 binding domain […] (SEQ ID NO:235) (SWESHKSGGETRL; not fully specified)", "values": [{"measurement": "Kd", "setting": "[1]", "value": 0.57, "unit": "µM"}, {"measurement": "Kd", "setting": "[2]", "value": 160, "unit": "µM"}]}]}
